Measured values: the RNAGym collection of RNA variant scans (doi:10.7554/elife.80360)

B1: HDV Ribozyme (parent)
chain: GGCCGGCAUGGUCCCAGCCUCCUCGCUGGCGCCGGCUGGGCAACAUUCCGAGGGGACCGUCCCCUCGGUAAUGGCGAAUGGGACCCA

Variants of: B1
Assay: self-cleavage, relative activity (ratio to wild type); higher = more cleavage; co-transcriptional

Variant | self-cleavage
G1A G82U | 0.095
C3A G73A | 0.152
U37C C66G | 0.932
C15A U23A | 0.604
C15A C26A | 0.529
C33A C58A | 0.19
G35C G39U | 0.0302
A56G G76U | 1.22
C62G C85A | 0.717
A8U C86U | 0.997
C21A G29A | 0.0875
C57U C58G | 0.762
G5A C44A | 0
C63U G68A | 0.973
G17C G81C | 0.0898
G29A C85A | 0.17
C15G C58A | 0.437
U27A A78C | 0.0573
G25A G53C | 0.248
C4A G80C | 0
C4A G80A | 0.0519
C7A G80U | 0.152
G73C A78G | 0.237
G25U U72C | 0.111

Variant | self-cleavage
U9G C24G | 0.453
G39C U47C | 0.166
G34A A87G | 0.159
C26U U46G | 0.787
G11A A43G | 0.0791
G11A C36G | 0.151
G35A C62A | 0.526
G2A C48A | 0.17
C48A G53C | 1.2
A16C G52A | 0.751
G10C G17C | 0.208
C3U G55U | 0.805
G40U G67A | 0.699
C7A C64G | 0.429
G2U G39C | 0.0125
G35U G80U | 0.223
C18U G50C | 0.705
G11A G82A | 0.253
C30U A87U | 0.636
A56C A77C | 0.482
G1U C19U | 0.28
C4U A70C | 0.482
G25A C44A | 0
G39U C84G | 0.348

Variant | self-cleavage
G74U C86U | 0.648
C32G U60C | 0.0723
U12C U47C | 0.185
G1C C7A | 0.0405
U27G G82U | 0.095
U20A G29A | 0.0773
C15A U37C | 0.665
C49A G68C | 0.849
C33G C84A | 0.231
A43G G67C | 0.465
C7U U60G | 0.831
C21U C85G | 0.358
A51U C58A | 1.04
U12G G55U | 0.748
A8U C21A | 0
A56G C57A | 0.847
G25U U65G | 0.269
C4G A56U | 0.462
C48G U69C | 0.987
A43U C57U | 0.631
A16U C32U | 0.727
A16C G53A | 0.674
G28C G39U | 0.125
A56C U72G | 0.383

Variant | self-cleavage
C22A G52C | 0.305
U23G C36U | 0.386
G17U C63U | 0.47
A8U C32U | 0.554
C64G G68C | 0.264
G11A G54C | 0.479
G2A G82U | 0.0468
A16U G39A | 0.32
G1A G2A | 0.457
U27C A87U | 0.6
C3A A87C | 0.515
C15A G39A | 0.095
C57G C61U | 0.967
G35C G74C | 0.17
G28U A77U | 0.0707
G25C G35U | 0.0692
G39U G50C | 0.598
G11A C14U | 0.277
U12A U23A | 0.192
C26U C49U | 0.89
G40A C86G | 1.01
G76A A87C | 1.03
G55U A70C | 0.997
C62U A83U | 0.318

Variant | self-cleavage
G52A A70G | 1.02
A70U G76A | 1.02
C24A G67C | 0.739
C15A G31U | 0.0339
C61G G82U | 0.271
A43U G74C | 0.125
C13A C85A | 0.19
G28C G81U | 0.0639
C3A G39C | 0.0196
G28A G53A | 0.02
C24G G67U | 0.135
G17A C64A | 0.645
C41A G73U | 0.873
G1U U60G | 0.443
C22G C24A | 0.0396
G35C U47C | 0.237
C13U A16C | 0.8
G34U U69C | 0.204
C7A G53U | 0.544
U46C U65C | 1.2
G28C C44A | 0.0475
C15G C85U | 0.453
A42G U46A | 0.554
C19A C33G | 0.0475

Variant | self-cleavage
U27C C85G | 0.751
G10A U27C | 0.759
C4U C44U | 0.394
C48U C49A | 1.05
G17A C61A | 0.594
U12A C19U | 0.0831
G6U U23G | 0.178
U69G A78C | 0.332
G5A G82C | 0
C13G U60G | 0
G35U C58G | 0.323
C64G U69C | 1.29
C13U C14G | 0.391
U37G G54C | 0.0594
C15U G55C | 0.895
G38U A56U | 0.273
G10U A16G | 0.618
C32G C86U | 0.203
C41G C49G | 0.597
C13G C36U | 0.0369
C30A C41G | 0.0875
U9A C86A | 0.554
C36G G54A | 0.0831
C32U G40C | 0.104

Variant | self-cleavage
G10U U60C | 0.767
C63G G74C | 0.128
C36G A51G | 0.151
G53A G68U | 0.807
C18G G54A | 0.125
A78C A83U | 0.166
U46C A83C | 0.237
C44A C84U | 0.431
C7U G39C | 0.0923
G52A G82A | 0.439
U46G G76U | 0.73
C22A G67U | 0.259
G74U A83U | 0.259
C49A G55U | 1.18
G5C A83U | 0
G6U G50A | 0.372
C32A U47C | 0.0462
G5C G81C | 0
G2U C18A | 0
G2C C14U | 0.0504
G17U G76C | 0.751
C18A C75G | 0.133
C30A G82C | 0.193
